Assay results reported in US20090069547A1, “STABILIZATION OF MAMMALIAN MEMBRANE PROTEINS BY SHORT SURFACTANT PEPTIDES” (Massachusetts Institute of Technology, priority 2007, published 2009).
Where two headings read alike, the source gives them in different places.

Key:
[1] = non-peptide surfactant, medium not stated; cited from earlier work
GPCR bovine rhodopsin [2] = biological target: T1, GPCR bovine rhodopsin (Bos taurus, UniProt P02699); experiment: Thermal stability of rhodopsin in peptide solution in the presence of surfactant (decay of A500); assay type: biochemical
T1 construct: Bovine retinae rod outer segment membranes were prepared (40, 41) and urea-stripped (42); tissue J. A. Lawson (Lincoln, Nebr.); host or cells: bovine retinae, rod outer segments
Experimental: Solubilization of Rhodopsin in Different Surfactants. Bovine retinae rod outer segment membranes were prepared (40, 41) and urea-stripped (42). Samples of the membranes containing 1.4 nmol of rhodopsin were solubilized in 0.5 ml of PBS containing 0.5 mM phenylmethylsulfonyl fluoride with 1% DM or 2% (/vol) OG. The suspensions were centrifuged (100,000×g for 15 min), and the supernatants were kept in the dark at 4° C.
Thermal Stability Study of Rhodopsin in Peptide Solution in the Presence of the Surfactant. Rhodopsin solubilized (32-34) in PBS containing 2% (vol/vol) OG was added to the same volume of PBS containing 0, […], 5.0, or 7.5 mM A6D, 1.8% PEG, or 5.4 mM RAD8. In another experiment, rhodopsin solubilized in PBS containing 1% (19.8 mM) DM was added to the same volume of PBS containing 5.0 mM A6D or 0, 5.0, or 19.8 mM DM. A decrease in A500 was recorded every 5 min up to 110 min at 40° C. for the samples containing OG and at 40-55° C. for those containing DM (FIGS. 2 and 3). UV-visible absorption spectroscopy was performed with a Lambda 6 spectrophotometer (Perkin-Elmer, Wellesley, Mass.) equipped with a temperature regulated cuvette holder with a slit width of 2 nm, 480 nm/min scan speed, and a response time of 1 second. The A500 remaining at different time points was expressed as the percentage of absorbance present at the start of the experiment. The half-life of rhodopsin in each solution was calculated by using a single exponential curve fit. The plot obtained from the percentage of absorbance at different time points was fitted to a single exponential curve with two parameters (Eq. 1).
The plot obtained from the A500 values at different time points was directly fitted to a single exponential curve with three parameters (Eq. 2) when the plot from the percentage of absorbance could not be fitted to Eq. 1.
The half-life (t1/2) was calculated using Eq. 3.

[3] = tested on: photosystem I (PSI) protein complex; settings: cited from earlier work; for Stabilization of the PSI complex (≈735-nm fluorescence maximum, words): surfactant added before drying the sample, emission at 77 K
[4] = biological target: T2, delipidated bovine rhodopsin (Bos taurus, UniProt P02699); experiment: Thermal stability of delipidated rhodopsin in the absence of phospholipids (decay of A500); assay type: biochemical
T2 construct: Bovine retinae rod outer segment membranes were prepared (40, 41) and urea-stripped (42); tissue J. A. Lawson (Lincoln, Nebr.); host or cells: bovine retinae, rod outer segments
Experimental: Removal of Phospholipids from Rhodopsin. Samples of the membranes containing 4.7 nmol of rhodopsin were solubilized in 1,000 ul of PBS containing 2% (vol/vol) OG. The suspension was mixed with 250 ul (settled beads, concentration of 50%) of rhodopsin-1D4 Sepharose and rotated for 3 h. The 1D4 Sepharose beads were then packed into a minicolumn (7-mm inner diameter) and washed with PBS containing 1% OG by using 500 bed volumes (total of 62.5 ml). The rhodopsin was then eluted with 1.5 ml of PBS containing 1% OG and the C-terminal nanopeptide.
Thermal Stability Study of Rhodopsin in Peptide Solution in the Absence of Phospholipids. The delipidated rhodopsin solution was added to the same volume of 1% OG in PBS containing 0, 3.75, or 7.5 mM A6D, or 1.8% PEG (FIG. 4B). In another experiment, the delipidated rhodopsin solutions were poured into tubes. Each tube was covered with 10 kDa of cutoff membrane and dialyzed against 4.5 ml of PBS or PBS containing 1.25 mM A6D or 1% OG (FIG. 4C). For all samples, a decrease in A500 was recorded every 5 min, up to 120 min at 40° C.

GPCR bovine rhodopsin [5] = biological target: T1, GPCR bovine rhodopsin; experiment: Thermal stability of rhodopsin in peptide solution in the absence of OG (decay of A500); assay type: biochemical; settings: for Half-life of rhodopsin: control samples containing only OG, without A6D
Experimental: Thermal Stability of Rhodopsin in Peptide Solution in the Absence of OG. Rhodopsin solubilized in PBS containing 2% (vol/vol) OG was added to the same volume of PBS containing 2.5 mM A6D. […] Then, 0.5 ml of the mixture was poured into the tube. The tube was covered with 10 kDa of cutoff membrane and dialyzed against 4.5 ml of PBS containing 1.25 mM A6D for 40 h in the dark at 4° C. A resultant sample decrease in A500 was recorded every 5 min for 120 min at 40° C. A decrease in A500 of the predialysis mixture containing 1% OG and 1.25 mM A6D was also monitored as a control (FIG. 4A).

[6] = Critical aggregation concentration (CAC) of surfactants, dynamic light scattering; assay type: physicochemical
Experimental: In a further embodiment, the surfactant peptide is added to the mammalian membrane protein at a concentration that is based on the CAC of the surfactant peptide. The CAC of surfactants can be determined experimentally using known dynamic light scattering methods. A minimal amount of sample can be used in this method. Each CAC determination takes a few hours, therefore it is possible to determine the CAC for a large number of peptide detergents in a few weeks. It is known that the lower the CAC, the more hydrophobic the detergents and the stronger the aggregation in water. The CAC for several peptide surfactants in water is shown below in Table 1.
Similar to common surfactants, these peptide surfactants have defined critical aggregation concentrations (CACs) in the sub-millimolar to millimolar range, depending on the hydrophobicity of the tails and the ionic concentration. For example, in water, A6D has a CAC of ≈1.6 mM, and A6K has a CAC of 1.5 mM; however, in phosphate-based saline (PBS) (10 mM sodium phosphate/150 mM NaCl, pH 7.4), A6D has a CAC of 0.25 mM and A6K has a CAC of ≈0.23 mM. This difference is due the charge screening effect in accordance with the Derjaguin-Landau-Verwey-Overbeck (DVLO) theory, which postulates that a critical coagulation concentration of counterions is required to allow assembly and that this concentration will be inversely proportional to the valence of the counterion raised to the sixth power (28). The peptide surfactant supramolecular structure is similar to that of phospholipids; namely, the formation of a polar interface sequesters the hydrophobic tails from water.

phycobilisomes = experiment: Stabilization of phycobilisomes, room temperature fluorescent spectroscopy (666 nm); assay type: biochemical, Porphridium Cruentum; settings: for 666 nm fluorescence intensity: phycobilisomes after buffer change to 0.4M PBS, excitation 540 nm, room temperature
Experimental: Methods: Native phycobilisomes were isolated from Porphridium Cruentum, purified by Martek Biosciences and received in stabilizing buffer (0.75 M PBS, pH ˜7). Peptergents (ac-A6D and ac-A6K—NH2) were used as supplied (CPC Scientific) without further purification. Briefly, phycobilisomes (1 ng/mL) were mixed with peptergent-0.75M PBS solutions (0, 1, 2, 4 and 8 critical aggregation concentrations (CAC)). Phycobilisome-peptide solutions were dialyzed (3400 MWCO) against PBS solutions of various molarity (0.6-0.01M) for 18 h, in the dark. Room temperature fluorescent spectroscopy of these solutions was conducted using an excitation wavelength of 540 nm and emitted fluorescence (550-700 nm) were collected. UV-Vis spectra were obtained to confirm solution concentrations for all acquired fluorescent data.

GPCR bovine rhodopsin [7] = biological target: T1, GPCR bovine rhodopsin; experiment: Thermal stability of rhodopsin in peptide solution in the presence of surfactant (decay of A500); assay type: biochemical; settings: control solution (1.25 mM A6D/1% OG), 50° C.
[8] = biological target: T3, glycerol 3-phosphate dehydrogenase (Escherichia coli, UniProt P13035); settings: in solution, assayed through protein gel electrophoresis; cited from earlier work
T3 sequence (P13035 1-501): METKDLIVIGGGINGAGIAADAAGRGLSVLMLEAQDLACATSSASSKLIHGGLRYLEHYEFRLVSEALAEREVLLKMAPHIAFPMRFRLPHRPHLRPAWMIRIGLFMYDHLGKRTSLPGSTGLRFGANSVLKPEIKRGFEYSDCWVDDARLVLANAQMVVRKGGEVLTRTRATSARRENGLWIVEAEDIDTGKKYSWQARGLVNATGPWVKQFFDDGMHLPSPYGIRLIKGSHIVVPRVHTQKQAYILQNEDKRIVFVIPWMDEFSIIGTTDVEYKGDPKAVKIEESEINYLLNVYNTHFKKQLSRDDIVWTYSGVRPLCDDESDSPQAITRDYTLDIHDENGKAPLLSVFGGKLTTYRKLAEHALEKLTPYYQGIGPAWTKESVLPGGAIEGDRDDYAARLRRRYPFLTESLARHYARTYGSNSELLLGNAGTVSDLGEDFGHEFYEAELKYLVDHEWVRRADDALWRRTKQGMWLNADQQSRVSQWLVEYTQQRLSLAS

[9] = in phosphate-based saline (PBS) (10 mM sodium phosphate/150 mM NaCl, pH 7.4)

T1 sequence (P02699 whole entry): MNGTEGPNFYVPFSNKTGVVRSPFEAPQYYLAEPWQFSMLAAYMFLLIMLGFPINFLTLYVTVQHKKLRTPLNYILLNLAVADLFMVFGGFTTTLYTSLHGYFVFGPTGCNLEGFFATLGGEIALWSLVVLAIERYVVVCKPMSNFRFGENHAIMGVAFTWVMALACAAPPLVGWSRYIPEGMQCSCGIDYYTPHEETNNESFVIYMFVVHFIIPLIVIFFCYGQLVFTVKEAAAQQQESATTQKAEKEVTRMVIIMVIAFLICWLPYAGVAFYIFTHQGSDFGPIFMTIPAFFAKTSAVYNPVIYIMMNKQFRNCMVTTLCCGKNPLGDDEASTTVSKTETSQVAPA
T2 sequence (P02699 whole entry): as above

Compound: CCCCCCCCCCCCO[C@@H]1O[C@H](CO)[C@@H](O[C@H]2O[C@H](CO)[C@@H](O)[C@H](O)[C@H]2O)[C@H](O)[C@H]1O [DM, n-dodecyl-B-D-maltoside]
- CAC [1]: ≈ 0.15 mM
- Half-life of rhodopsin (GPCR bovine rhodopsin [2]; 12.3 mM DM, 50° C.): 96 min
- Half-life of rhodopsin (GPCR bovine rhodopsin [2]; rhodopsin/phospholipid, 13.3 mM DM (89×CAC)): ≈ 93 min
- Half-life of rhodopsin (GPCR bovine rhodopsin [2]; rhodopsin/phospholipids, 9.8 mM DM, 50° C.): 102 min and ≈ 102 min
- Half-life of rhodopsin (GPCR bovine rhodopsin [2]; rhodopsin/phospholipids, 19.6 mM DM, 50° C.): 96 min and ≈ 93 min
- Stabilization of the PSI complex (≈735-nm fluorescence maximum, words) [3]: did not stabilize

Compound: CCCCCCCCO[C@@H]1O[C@H](CO)[C@@H](O)[C@H](O)[C@H]1O [OG, octyl-D-glucoside]
- CAC [1]: ≈ 5 mM
- Stabilization effect on delipidated rhodopsin ([4]; OG added to delipidated rhodopsin, 40° C.): did not have a significant stabilization effect
- Half-life of rhodopsin ([4]; delipidated rhodopsin dialyzed against 1% OG (control), 40° C.): 27 min
- Half-life of rhodopsin ([4]; delipidated rhodopsin, 1% OG, 40° C. (A6D concentration series)): 23 min
- Half-life of rhodopsin (GPCR bovine rhodopsin [5]; 40° C.): ≈ 101 min
- Half-life of rhodopsin (GPCR bovine rhodopsin [5]; 50° C.): ≈ 5 min
- Half-life of rhodopsin (GPCR bovine rhodopsin [2]; rhodopsin/phospholipids in 1% OG (PBS), 40° C.): 71 min and ≈ 71 min
- Stabilization of the PSI complex (≈735-nm fluorescence maximum, words) [3]: did not stabilize

Compound: AAAAAAD [A6D]
- CAC [6, 9]: 0.25 mM
- CAC ([6]; in water): ~1.6 mM
- Concentration normalized signal strength (phycobilisomes; 666 nm, versus stabilized control): very similar to the stabilized control
- 666 nm fluorescence intensity (phycobilisomes): 1.3 ×10^5 cps
- Half-life of rhodopsin ([4]; delipidated rhodopsin, 1.25 mM A6D alone, no OG, no phospholipids, 40° C.): 122 min and ≈ 122 min
- fold increase in stability compared with the stability in OG alone ([4]; delipidated rhodopsin, 1.87 mM A6D in OG, 40° C.): 2.8 fold
- Half-life of rhodopsin ([4]; delipidated rhodopsin, 1.87 mM A6D/1% OG, 40° C.): 76 min and ≈ 76 min
- fold increase in stability compared with the stability in OG alone ([4]; delipidated rhodopsin, 3.75 mM A6D in OG, 40° C.): 4.7 fold
- Half-life of rhodopsin ([4]; delipidated rhodopsin, 3.75 mM A6D/1% OG, 40° C.): 128 min and ≈ 128 min
- fold increase in stability ([4]; delipidated rhodopsin, A6D alone vs absence of both phospholipids and OG, 40° C.): 2.6 fold
- Thermal stability of rhodopsin (GPCR bovine rhodopsin [5]; rhodopsin/lipid/A6D complex without OG, 2.5 mM A6D, 40° C., 50° C., and 55° C.): very stable at all tested temperatures with little denaturation
- Half-life of rhodopsin (GPCR bovine rhodopsin [7]): < 5 min
- fold increase in stability compared with the stability in OG alone (GPCR bovine rhodopsin [2]; 2.5 mM A6D/1% OG, rhodopsin/phospholipids, 40° C.): 2.5 fold
- fold increase in stability of rhodopsin (GPCR bovine rhodopsin [2]; 3.75 mM A6D/1% OG, rhodopsin/lipid, 40° C.): ~4 fold
- Half-life of rhodopsin (GPCR bovine rhodopsin [2]; rhodopsin/lipid, 1.25 mM A6D/1% OG, 40° C.): 101 min and ≈ 101 min
- Half-life of rhodopsin (GPCR bovine rhodopsin [2]; rhodopsin/lipid, 3.75 mM A6D/1% OG, 40° C.): 277 min and ≈ 277 min
- Half-life of rhodopsin (GPCR bovine rhodopsin [2]; rhodopsin/phospholipids, 2.5 mM A6D/1% OG, 40° C.): 173 min and ≈ 173 min
- Thermal stability of rhodopsin (GPCR bovine rhodopsin [2]; rhodopsin/phospholipids/DM (9.8 mM) plus 2.5 mM A6D, 50° C.): extremely stable with little decay

Compound: AAAAAAK [A6K]
- CAC [6, 9]: ≈ 0.23 mM
- CAC ([6]; in water): ~1.5 mM
- 666 nm fluorescence intensity (phycobilisomes): 0.7 ×10^5 cps
- Time the PSI complex is stable in a dried form ([3]; room temperature, in the presence of the peptide surfactant): at least 3 weeks
- Stabilization of the PSI complex (≈735-nm fluorescence maximum, words) [3]: significantly stabilized the PSI complex

Compound: Ac-n-RADARADA-c-NH2 (Ac-RADARADA-NH2) [RAD8, octapeptide similar in size to A6D without significant surfactant properties]
- Half-life of rhodopsin (GPCR bovine rhodopsin [2]; rhodopsin/phospholipid, 2.8 mM RAD8/1% OG, 40° C.): 99 min and ≈ 99 min

Compound: VVVVVVD [V6D]
- CAC ([6]; in water): ~0.7 mM
- Solubilized membrane protein function [8]: retaining its functional enzymatic activities
- Stabilization of the PSI complex (≈735-nm fluorescence maximum, words) [3]: also stabilized the complex, but to a lesser extent

Compound: VVVVVVDD [V6D2]
- CAC ([6]; in water): 1.1 mM
